# Assay results reported in PMC7957537 (2021).
# T1: recombinant human VEGFR2 (human, UniProt P35968 20-764)
# T1 chain: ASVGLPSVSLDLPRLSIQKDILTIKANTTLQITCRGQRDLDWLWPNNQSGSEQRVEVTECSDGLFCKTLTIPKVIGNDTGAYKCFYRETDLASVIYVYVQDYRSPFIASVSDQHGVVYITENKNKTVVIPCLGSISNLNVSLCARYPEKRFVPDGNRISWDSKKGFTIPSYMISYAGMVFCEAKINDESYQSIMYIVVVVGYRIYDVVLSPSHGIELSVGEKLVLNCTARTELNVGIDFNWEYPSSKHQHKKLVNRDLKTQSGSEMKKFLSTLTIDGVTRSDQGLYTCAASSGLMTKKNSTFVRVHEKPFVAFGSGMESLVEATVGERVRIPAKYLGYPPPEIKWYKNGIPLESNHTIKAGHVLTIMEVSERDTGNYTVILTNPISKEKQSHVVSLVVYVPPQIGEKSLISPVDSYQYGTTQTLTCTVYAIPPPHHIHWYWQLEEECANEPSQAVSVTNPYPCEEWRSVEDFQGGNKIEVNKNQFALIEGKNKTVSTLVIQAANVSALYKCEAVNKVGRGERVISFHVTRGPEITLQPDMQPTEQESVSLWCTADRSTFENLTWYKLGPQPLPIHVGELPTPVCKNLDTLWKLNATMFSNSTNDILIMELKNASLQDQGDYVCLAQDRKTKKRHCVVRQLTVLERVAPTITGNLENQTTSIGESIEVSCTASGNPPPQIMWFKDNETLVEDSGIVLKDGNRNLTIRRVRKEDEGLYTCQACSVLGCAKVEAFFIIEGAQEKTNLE
# How the values were obtained:
# recombinant human VEGFR2 [1] = target: T1, recombinant human VEGFR2; experiment: SPR
# recombinant human VEGFR2 [2] = target: T1, recombinant human VEGFR2; experiment: SPR
binder,measurement,setting,value
"ramucirumab (Cyramza) (antibody, V domains shown) VH: EVQLVQSGGGLVKPGGSLRLSCAASGFTFSSYSMNWVRQAPGKGLEWVSSISSSSSYIYYADSVKGRFTISRDNAKNSLYLQMNSLRAEDTAVYYCARVTDAFDIWGQGTMVTVSS VL: DIQMTQSPSSVSASIGDRVTITCRASQGIDNWLGWYQQKPGKAPKLLIYDASNLDTGVPSRFSGSGSGTYFTLTISSLQAEDFAVYFCQQAKAFPPTFGGGTKVDIK",koff,recombinant human VEGFR2 [1],0.000102 s⁻¹
same,Kd,recombinant human VEGFR2 [2],0.949 nM
